Results taken from patent US20220169693A1, “Screening Assays, Modulators and Modulation of Intracellular Signalling Mediated by Immunoglobulin Superfamily Cell Adhesion Molecules” (Monash University, priority 2018, published 2022).

Experiments:
[1] = tested on: AT1R-CHO cells; assay: p65 expression in AT1R-CHO cells expressing the truncated construct alone; assay type: cell-based, Chinese Hamster; settings: AT1R-CHO cells, Ang II 1 μM (FIG. 3A, 5A, 5B)
Description: (§1) Adult retinal pigment epithelial (ARPE) cells were cultured in Dulbecco's modified Eagle's medium (DMEM)/F12 endothelial cell growth supplement (ECGS) supplemented media. Chinese Hamster Ovary (CHO) cells were cultured using F12 media (10% FCS with 2 mM glutamine). Human microvascular endothelial cells (HMEC) were cultured in MCDB 131 medium (10% FCS with 10 mM glutamine, EGF and hydrocortisone).
(§2) 100 ng of AT1R-Rluc8 construct was transfected into CHO cells using Lipofectamine 2000 (Thermo). Stable transfectants were selected using G418. AT1R-CHO were then transiently transfected with the IgSF CAM and/or RAGE constructs using Lipofectamine 2000 (Invitrogen) and incubated for 16h.
Oligonucleotides were designed and ordered to generate the ALCAM, BCAM and MCAM intracellular (cytosolic) domains. These included a 5′ NheI site, Kozak sequence and initiating Methionine and then DNA sequences corresponding to ALCAM residues 552-583, BCAM residues 569-628 and MCAM residues 584-637 respectively (Note that as residue 551 of ALCAM is Methionine, the cytosolic tail of ALCAM effectively corresponded to residues 551-583). The pCIneo parental vector was digested with NheI and NotI restriction enzymes, and the DNA of the fragments of the ALCAM, BCAM and MCAM tails/cytosolic domains were ligated into the digested plasmid. After transformation and recovery, colonies were screened and individual clones sequenced. The sequence of the insert was confirmed by DNA sequencing (Micromon, Monash University). A full-length clone of Mouse ALCAM (BC027280) was purchased from Origene. The untagged clone was supplied in the vector pCMV6. Overlapping DNA sequences were ordered to generate the ALCAM559-580 fragment oligonucleotide. These included a 5′ NheI site, Kozak sequence and initiating Methionine and then DNA sequences corresponding to ALCAM residues 559-580. The pCIneo parental vector was digested with NheI and NotI restriction enzymes, and the ALCAM559-580 construct DNA was ligated into the digested plasmid. After transformation and recovery, colonies were screened and individual clones sequenced.
(§3) After 2 hours of exposure to Ang II (1 μM) cells were placed in Trizol, mRNA extracted and cDNA synthesized. Changes in the gene expression of the NFκB subunit, p65 (RelA) or NFκB-activated target genes (e.g ICAM-1) were estimated by quantitative real-time RT-PCR, performed using the TaqMan system based on real-time detection of accumulated fluorescence (ABI Prism 7700, Perkin-Elmer Inc, PE Biosystems, Foster City, Calif., USA). Gene expression was normalized to 18S mRNA and reported as fold change compared to the level of expression in untreated control mice/cells, which were given an arbitrary value of 1.

[2] = molecular target: T1, cytosolic tail of BCAM, BCAM569-628 (Homo sapiens, UniProt P50895); assay: Ang II-induced p65 expression in AT1R-CHO cells transfected with cytosolic tail of BCAM; assay type: cell-based; set-up: corresponds to residues 569-628 of BCAM plus an initiating Methionine; initiating Methionine (N); expressed in transfected cells; host or cells: AT1R-CHO (CHO stably transfected with human AT1R-Rluc8); insert in pCIneo; settings: Ang II 1 μM, co-transfection (FIG. 3H)
T1 sequence (P50895 with tags, fused parts or gaps): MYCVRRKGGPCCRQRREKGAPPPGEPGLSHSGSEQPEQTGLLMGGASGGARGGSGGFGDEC
Description: as §1, §2
(§4) Oligonucleotides were designed and ordered to generate the ALCAM, BCAM and MCAM intracellular (cytosolic) domains. […]
as §3, with “Gene expression was normalized to 18S mRNA and reported as fold change compared to the level of expression in untreated control mice/cells, which were given an arbitrary value of 1.” left out

[3] = molecular target: T2, cytosolic tail of MCAM, MCAM584-637 (Homo sapiens, UniProt P43121); assay: Ang II-induced p65 expression in AT1R-CHO cells transfected with cytosolic tail of MCAM; assay type: cell-based; set-up: corresponds to residues 584-637 of MCAM plus an initiating Methionine; initiating Methionine (N); expressed in transfected cells; host or cells: AT1R-CHO (CHO stably transfected with human AT1R-Rluc8); insert in pCIneo; settings: Ang II 1 μM, co-transfection (FIG. 3I)
T2 sequence (P43121 with tags, fused parts or gaps): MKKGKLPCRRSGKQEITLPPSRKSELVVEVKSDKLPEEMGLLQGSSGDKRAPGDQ
Description: as §1, §2, §4
as §3, with “Gene expression was normalized to 18S mRNA and reported as fold change compared to the level of expression in untreated control mice/cells, which were given an arbitrary value of 1.” left out

[4] = tested on: full length chicken EpCAM; assay: Ang II-induced p65 expression in AT1R-CHO cells transfected with full length chicken EpCAM; assay type: cell-based; settings: Ang II 1 μM, co-transfection (FIG. 3D)
Chain of full length chicken EpCAM (as listed by the source): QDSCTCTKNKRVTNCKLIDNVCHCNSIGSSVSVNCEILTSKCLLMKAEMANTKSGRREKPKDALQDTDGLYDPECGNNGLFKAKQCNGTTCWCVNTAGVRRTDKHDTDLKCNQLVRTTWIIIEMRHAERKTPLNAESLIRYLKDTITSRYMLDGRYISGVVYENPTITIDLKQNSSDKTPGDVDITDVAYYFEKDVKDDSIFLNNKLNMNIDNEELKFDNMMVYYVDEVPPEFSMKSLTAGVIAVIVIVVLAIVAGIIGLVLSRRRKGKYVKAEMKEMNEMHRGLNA
Description: as §1, §2, §3

[5] = molecular target: full length RAGE1-404 (Homo sapiens, UniProt Q15109); assay: Ang II-induced p65 expression in AT1R-CHO cells transfected with full length human RAGE; assay type: cell-based; set-up: expressed in transfected cells; host or cells: AT1R-CHO (CHO stably transfected with human AT1R-Rluc8), transient transfection; settings: Ang II 1 μM 2 h, co-transfection (FIG. 6A)
Chain of full length RAGE1-404 (Q15109 23-404): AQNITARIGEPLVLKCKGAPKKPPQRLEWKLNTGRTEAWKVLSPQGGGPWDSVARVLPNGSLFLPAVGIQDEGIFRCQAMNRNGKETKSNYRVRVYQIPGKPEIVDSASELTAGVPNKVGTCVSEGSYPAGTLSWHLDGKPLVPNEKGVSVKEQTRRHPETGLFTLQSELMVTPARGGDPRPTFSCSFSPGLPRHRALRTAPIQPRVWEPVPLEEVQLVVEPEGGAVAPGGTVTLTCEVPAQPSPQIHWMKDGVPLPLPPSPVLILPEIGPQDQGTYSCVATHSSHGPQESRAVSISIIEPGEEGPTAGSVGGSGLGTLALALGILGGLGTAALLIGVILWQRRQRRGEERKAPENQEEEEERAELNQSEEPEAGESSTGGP
Description: as §1, §2, §3

induction of p65-NFκB expression by Ang II via transactivation of BCAM569-628 [2]: prevents induction | induction of p65-NFκB expression by Ang II via transactivation of MCAM584-637 [3]: prevents induction | induction of p65 expression mediated by full length human RAGE1-404 transactivated by AT1 receptor [5]: inhibits
Sequence: MKHVNKDLGNMEENKKLEENNHK [ALCAM559-580]
induction of p65 expression by Ang II when the construct alone is expressed [1]: failed to increase the expression of p65 | induction of p65-NFκB expression by Ang II via transactivation of full length chicken EpCAM [4]: prevents induction
